Substrate in the assay: S protein of GD03T on pseudotyped HIV virus (SARS-CoV (GD03T0013 isolate))

Bounds are passed on as bounds.

B1: 80R IgG1 (antibody, V domains shown)
VH: EVQLVQSGGGVVQPGKSLRLSCAASGFAFSSYAMHWVRQAPGKGLEWVAVISYDGSNKYYADSVKGRFTISRDNSKNTLYLQMNSLRAEDTAVYYCARDRSYYLDYWGQGTLVTVSS
VL: ETTLTQSPATLSLSPGERATLSCRASQSVRSNLAWYQQKPGQAPRPLIYDASTRATGIPDRFSGSGSGTDFTLTISRLEPEDFAVYYCQQRSNWPPTFGQGTKVEVK
For B1, the inhibition of pseudoviral infection of ACE2-expressing 293T cells (luciferase) was > 50 µg/mL.

(Values after patent publication US7750123B2.)
